Measurements from PMC2726291, “Sus1, Cdc31, and the Sac3 CID Region Form a Conserved Interaction Platform that Promotes Nuclear Pore Association and mRNA Export” (Molecular Cell, 2009).

T1: 6XHis-ENY2 (human, UniProt Q9NPA8 1-101)
T1 construct: ENY2, human homolog of Sus1; cDNA cloned into the NdeI and SalI sites of pET28a; also called human Sus1 homolog; DC6/ENY2; source: E. coli BL21, purified (Ni-NTA Agarose)
T1 sequence (looked up): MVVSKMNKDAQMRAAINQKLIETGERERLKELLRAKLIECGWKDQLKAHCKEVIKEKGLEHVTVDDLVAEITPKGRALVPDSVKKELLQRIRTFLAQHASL

T2: Sus1 (of the in vitro binding studies of Figure S6) (yeast, UniProt Q6WNK7 1-96)
T2 construct: Sus1, yeast
T2 sequence (looked up): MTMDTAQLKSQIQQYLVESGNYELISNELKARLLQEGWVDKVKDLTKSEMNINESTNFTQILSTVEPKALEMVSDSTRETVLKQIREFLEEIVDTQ

T3: Sac3 residues 723–805 (Sac3^CID) (yeast, UniProt P46674 723-805)
T3 construct: Vector pGEXTEV; also called CID domain; not shown: GST, N-terminal, cleaved
T3 sequence (looked up): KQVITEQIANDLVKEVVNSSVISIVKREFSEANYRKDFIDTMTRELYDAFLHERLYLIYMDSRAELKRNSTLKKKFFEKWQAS

B1: Sac3 residues 753–805 (domain or fragment, yeast, UniProt P46674 753-805, looked up)
chain: EANYRKDFIDTMTRELYDAFLHERLYLIYMDSRAELKRNSTLKKKFFEKWQAS
notes: Vector pGEXTEV; not shown: GST, N-terminal, cleaved
B2: GST-Sac3(723–752) (domain or fragment, yeast, UniProt P46674 723-752, looked up)
chain: KQVITEQIANDLVKEVVNSSVISIVKREFS
notes: Vector pGEXTEV; source: E. coli, immobilised on glutathione Sepharose 4B resin from clarified lysate; not shown: GST, N-terminal, kept
B3: Sac3 (construct of the in vitro binding studies of Figure S6) (domain or fragment)
chain: T3 sequence (looked up)
modifications: Supplement text on Sus1 affinity (Figure S6): plates coated with GST-Sac3(723-805) co-complexed with full-length Cdc31; GST and the Cdc31 partner chain (P06704) omitted here
B4: GST-GANP(1162–1240) (domain or fragment, human, UniProt O60318 1162-1240, looked up)
chain: ELVLSELSQGLAVELMERVMMEFVRETCSQELKNAVETDQRVRVARCCEDVCAHLVDLFLVEEIFQTAKETLQELQCFC
notes: Vector pGEXTEV; not shown: GST, N-terminal, kept
B5: GST-Sac3(758–805) (domain or fragment, yeast, UniProt P46674 758-805, looked up)
chain: KDFIDTMTRELYDAFLHERLYLIYMDSRAELKRNSTLKKKFFEKWQAS
notes: Vector pGEXTEV; The methods say that GST-Sac3 fragments were coexpressed with Cdc31; source: E. coli, immobilised on glutathione Sepharose 4B resin from clarified lysate; not shown: GST, N-terminal, kept
B6: Sus1 (recombinant, untagged, full length) (natural protein, yeast, UniProt Q6WNK7 1-96, looked up)
chain: T2 sequence (looked up)
notes: Sus1, yeast, full length; the model holds residues 6–95; also called Sus1A; Sus1B; source: E. coli BL21(DE3) CodonPlus RIL, untagged vector pOPT, purified as a complex with Sac3 fragment and Cdc31
B7: Cdc31 (recombinant, untagged, full length) (natural protein, yeast, UniProt P06704 1-161, looked up)
chain: MSKNRSSLQSGPLNSELLEEQKQEIYEAFSLFDMNNDGFLDYHELKVAMKALGFELPKREILDLIDEYDSEGRHLMKYDDFYIVMGEKILKRDPLDEIKRAFQLFDDDHTGKISIKNLRRVAKELGETLTDEELRAMIEEFDLDGDGEINENEFIAICTDS
notes: Cdc31, yeast, full length, cloned into pET30a and called untagged; the model holds residues 9–161; source: E. coli BL21(DE3) CodonPlus RIL, coexpressed with GST-Sac3 fragments, purified as a complex
B8: GST-GANP(1162–1204) (domain or fragment, human, UniProt O60318 1162-1204, looked up)
chain: ELVLSELSQGLAVELMERVMMEFVRETCSQELKNAVETDQRVR
notes: as for B4

Experiments:
[1] = target: B6; assay: crystal structure; Sac3 fragment:Cdc31:Sus1 complexes, hanging drop vapor diffusion in PEG solutions at 19°C; 2.5 Å (Sac3 753–805) and 2.7 Å (Sac3 723–805); settings: both partners purified
[2] = target: B7; assay: as above; settings: both partners purified
[3] = target: T1, 6XHis-ENY2; assay: pull-down; GST or GST fusions immobilised on glutathione Sepharose 4B; purified ENY2 added in 10-fold excess, washed extensively with NB buffer (150 mM NaCl, 50 mM KOAc, 20 mM Tris, 2 mM Mg(OAc)2, 0.1% NP-40); SDS-PAGE (Figure S4); settings: both partners purified
[4] = target: T2, Sus1 (of the in vitro binding studies …); assay: not stated; in vitro binding studies (Figure S6)
[5] = target: T3, Sac3 residues 723–805 (Sac3^CID); assay: crystal structure; Sac3 fragment:Cdc31:Sus1 complexes, hanging drop vapor diffusion in PEG solutions at 19°C; 2.5 Å (Sac3 753–805) and 2.7 Å (Sac3 723–805); settings: both partners purified

Binder: B1
binding result [1]: binds | binding result [2]: binds

Binder: B2
binding result [3]: binds

Binder: B3
Kd [4]: ~10 nM

Binder: B4
binding result [3]: binds

Binder: B5
binding result [3]: binds

Binder: B6
stoichiometry N [5]: 2

Binder: B7
stoichiometry N [5]: 1

Binder: B8
binding result [3]: binds
